This is an account of results in patent publication US9657092B2, “S100A4 antibodies and therapeutic uses thereof” (LYKERA BIOMED SA, priority 2010, dated 2017).

The test system of test [1] is IL-8 release induced by S100A4 in THP-1 monocytes. Nature of the test: IL-8 release in THP-1 monocytes (sandwich ELISA). Format: cell-based, human. As to the method: Cells of the human monocytic leukemia cell line THP-1 (ATCC) were grown in RPMI 1640 culture medium supplemented with 10% FCS and 1% penicillin/streptomycin, at 37° C. in 5% CO2 in a humidified incubator. Cells were plated at 5.0×10^5 cells/well. […] Anti-mouse IgG (Fc specific) was always added in all the cases for preventing the Fc receptor response. Cell culture supernatants were collected after 24 h and stored at −20° C. The levels of IL-8 were analyzed by sandwich ELISA.

The next test has as its system HCT116 tumors. Briefly: HCT116 subcutaneous xenograft tumor development. The class given is in vivo, nude mice. The conditions noted are these: HCT116, end of experiment (day 21). How it is done:
MiaPACA-2 human pancreatic adenocarcinoma cell line and HCT116 human colorectal adenocarcinoma cell line in exponential growth were harvested with trypsin-EDTA (0.05%/0.02%) (Invitrogen), washed, and examined for viability by trypan blue dye exclusion. Viability was greater than 95%. For primary tumor growth, cells (either 5×10^6 or 1×10^6 cells for MiaPACA-2 or HCT116 respectively in 0.1 mL DMEM high glucose) were subcutaneously injected into the flanks of nude mice. Tumor volumes between 65-160 mm^3 for MiaPACA-2 and volumes between 155-370 mm^3 for HCT116 were used to divide the mice into two groups of either ten mice each (MiaPACA-2) or seven mice each (HCT116), such that the mean tumor size was equal between groups (approximately 100 mm^3 for MiaPACA-2 or 220 mm^3 for HCT116). Tumor growth was followed by measuring tumor diameters with calipers and the tumor volume was calculated using an approximated formula for a prolate ellipsoid: volume=(D×d^2)/2 where D is the longest axis of the tumor and d the shortest. Mice were treated either with vehicle (PBS) or with the antibody, i.p. three times per week at 25 mg/Kg/100 μL of sterile PBS, starting the treatment at defined tumor volume (100 mm^3 and 220 mm^3). […]

For the next test, the target named is Human S100A4 (Homo sapiens, UniProt P26447). Nature of the test: Western-blot of cell and tumor extracts. Further details: Levels of S100A4 expression in total extracts from tumor cell lines of different origins; endogenous in cells; host or cells: human tumour cell lines (MiaPACA-2, Panc1, BxPC3, Colo 205, MDA-MB-231 and others) and xenograft tumours from HCT116, MiaPACA-2, BxPC3. The conditions noted are these: denaturalized protein, reduced conditions. Format: binding. As to the method:
Cell and tumors samples were rinsed twice with PBS and immediately lysed with ice cold Cell Lysis Buffer (150 mM NaCl, 1% IGEPAL CA630, 5 mM EDTA, 100 μg/mL PMSF, 1 mM Na3VO4, 1 mM NaF and 50 mM Tris pH 7.4). Lysates were cleared by centrifugation and the protein concentration was quantified with the Bradford reagent (Bio-Rad). Total extracts (50 μg) were resolved in a 12% SDS-polyacrilamide gel (PAGE) electrophoresis under reduced conditions and transferred to BioTrace™ PVDF membranes (PALL corporation). Membranes were blocked for 1 hour in TBS plus 0.1% Tween-20 with 5% skimmed dried milk, incubated overnight with the relevant primary antibody and then with the secondary antibodies for 1 hour in blocking buffer, washing three times for 10 min in TBS plus 0.1% Tween-20 after each incubation. Signals were developed using the ECL™ Western Blotting Detection Reagents (Amersham) and exposed to Hyperfilm™ ECL (Amersham).

Test [2] relates to MMP9 proteolytic activity induced by S100A4. Nature of the test: Gelatin zymography of HUVECs conditioned media. The class given is cell-based, human. The following applies: 1-2 μM antibody with S100A4 1 μM, 24 h. How it is done:
HUVECs were grown in EBM plus supplements (EGM) and 10% FCS, in 24-well culture plates. Before stimulation, cells were maintained 4 hours in EBM in the absence of serum or other supplements. Then, S100A4 (0.3-1-3 μM), in EBM were added to the culture to analyze their capacity to increase the secretion of active forms of matrix metalloproteinases (MMPs). […] After 24 hours at 37° C., supernatants were centrifuged to remove the debris. Then, 10 μL of Laemmli sample buffer without reducing agent (80 mM Tris-HCl pH 6.8, 4% SDS, 10% glycerol, 0.01% bromophenol blue) was added to 10 μl of each of the clear supernatants that were loaded without boiling in a 8% SDS-polyacrylamide gel copolymerized with Type A gelatine from porcine skin (Sigma) at a final concentration of 1 mg/mL. After electrophoresis, SDS was removed by washing the gel three times for 15 minutes with 2.5% Triton X-100 in H2O. […] Staining was performed for 1 hour at RT with 0.1% naphthol amido black (Sigma) in acetic acid, methanol and water at a proportion of 1:3:6 in volume. Then, gels were washed with destaining solution until clear bands were observed over a dark background. Bands were quantified using the NIH ImageJ imaging software.

Human S100A4, sequence (P26447 whole entry): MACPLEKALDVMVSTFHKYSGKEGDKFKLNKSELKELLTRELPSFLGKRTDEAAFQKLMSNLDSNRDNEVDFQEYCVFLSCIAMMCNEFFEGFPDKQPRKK

B1: 5C3: mouse monoclonal anti-S100A4 antibody, IgG1, from hybridoma ECACC 10022401; VL SEQ ID NO: 1, VH SEQ ID NO: 2 (antibody, V domains shown)
VH: EAQLQQSGAELVKPGASVKLSCTASGFNIQETYMHWVKQRPEQGLEWIGRIDPANGNTKDDPKFQGKASITVDTSSNTAYLQLSSLTSEDTAVYYCASSYAMDYWGQGTSVTVSS
VL: DVLMTQTPLSLPVSLGDQASISCRSSQSIVHSNGNTYLEWYLQKTGQSPELLIYKVSNRLSGVPDRFSGSGSGTDFTLKISRVEAEDLGVYYCFQGSHVPFTFGSGTKLEIK
modifications: VH region of the 5C3 monoclonal antibody; VL region of the 5C3 monoclonal antibody
As to B1, the “IL-8 release induced by S100A4” value in test [1] (S100A4 3 μM, 24 h) is “can be blocked”. Also, the “IL-8 levels in absence of S100A4” value in test [1] (absence of S100A4, data not shown) is given as “no effect”. For the same molecule, the “tumor weight compared with the control group” value in the test on HCT116 tumors is reported as “induced a decrease in tumor weight”. The “reaction with human S100A4 in Western-blot” value with Human S100A4 was “react with human S100A4”. The “activity of MMP9 in the media” value in test [2] is given as “completely reduced”.
